For assay [1], the target named is human N-cadherin naturally expressed on DX3 melanoma cells (human) (UniProt P19022). Nature of the assay: adhesion of DX3 cells to coated monomeric N-cadherin-Fc, in oxidising buffer and in 10 mM DTT.
The target in assay [2] is T1, full length chicken N-cadherin with the mutation D1C expressed on K562 cells (chicken, UniProt P10288 165-912, D1C).
T1 construct: whole, on cells; also called D1C cells; K562 D1C
T1 sequence (looked up): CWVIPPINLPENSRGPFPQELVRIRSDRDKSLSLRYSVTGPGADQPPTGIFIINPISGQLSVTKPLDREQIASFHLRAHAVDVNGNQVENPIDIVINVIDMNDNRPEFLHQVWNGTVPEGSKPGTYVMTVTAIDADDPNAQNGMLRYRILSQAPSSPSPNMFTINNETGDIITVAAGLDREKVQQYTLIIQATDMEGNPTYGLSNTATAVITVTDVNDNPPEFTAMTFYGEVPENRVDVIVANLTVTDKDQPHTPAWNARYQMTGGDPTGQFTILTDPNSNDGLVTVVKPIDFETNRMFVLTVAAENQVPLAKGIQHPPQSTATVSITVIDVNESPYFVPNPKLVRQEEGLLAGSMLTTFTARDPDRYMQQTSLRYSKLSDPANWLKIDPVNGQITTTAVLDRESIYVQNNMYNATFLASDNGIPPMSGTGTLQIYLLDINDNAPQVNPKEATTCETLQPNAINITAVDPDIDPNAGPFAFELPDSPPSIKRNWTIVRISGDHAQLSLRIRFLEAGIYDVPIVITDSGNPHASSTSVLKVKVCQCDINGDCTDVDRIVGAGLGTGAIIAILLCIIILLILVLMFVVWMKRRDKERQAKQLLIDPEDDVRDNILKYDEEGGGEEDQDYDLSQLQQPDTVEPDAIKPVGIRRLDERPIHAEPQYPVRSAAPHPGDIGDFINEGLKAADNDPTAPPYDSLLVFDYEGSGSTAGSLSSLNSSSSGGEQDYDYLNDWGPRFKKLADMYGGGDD
Nature of the assay: Protein A Dynabeads coated with dimeric D27C N-cadherin-Fc mixed with K562 transfectants. How it is done: (§1) In an alternative protocol, Dynabeads (Dynal) coupled to Protein A were coated with dimeric N-cadherin-Fc (1 μg/ml), bearing the mutation D27C, for 1 hour at room temperature in the presence of 0.1% Tween 20 and 4 mM EGTA (to prevent aggregation). The beads were then washed with HBSS. K562 transfectants expressing cell surface Ncadherin with the mutations D1C, R25C or D27C, were treated with 10 mM DTT for 15 minutes at 37° C., then washed and resuspended in HBSS without DTT. Cells ([…]) were mixed with 3 μl of beads coated with mutant N-cadherin-Fc in a final volume of 100 μl HBSS. Cells and beads were incubated together at room temperature for 2 hours with slow rotation to allow adhesion. Approximately five beads became attached to each cell and there was some clumping of attached and unattached beads. Iodoacetamide, 2 μl of 1.0M solution, was then added to alkylate free sulphydryl groups. The samples were then spun down at 1500 g and the cells were lysed in HBSS, 0.075% SDS, 1% NP40, 0.2 mM AEBSF, for 4 minutes on ice. Beads were then isolated with a magnet and washed twice with lysis buffer. Disulphide-bonded complexes between cellular cadherin and the Fc-fusion protein were analysed by SDS-PAGE and immunoblotting for cadherin cytoplasmic domain as described above. To ensure equal loading, membranes were stripped and re-assayed with anti-Human Fc.

For assay [3], the target named is T2, full length chicken N-cadherin with the mutation R25C expressed on K562 cells (chicken, UniProt P10288 165-912, R25C).
T2 construct: whole, on cells; also called K562 R25C
T2 sequence (looked up): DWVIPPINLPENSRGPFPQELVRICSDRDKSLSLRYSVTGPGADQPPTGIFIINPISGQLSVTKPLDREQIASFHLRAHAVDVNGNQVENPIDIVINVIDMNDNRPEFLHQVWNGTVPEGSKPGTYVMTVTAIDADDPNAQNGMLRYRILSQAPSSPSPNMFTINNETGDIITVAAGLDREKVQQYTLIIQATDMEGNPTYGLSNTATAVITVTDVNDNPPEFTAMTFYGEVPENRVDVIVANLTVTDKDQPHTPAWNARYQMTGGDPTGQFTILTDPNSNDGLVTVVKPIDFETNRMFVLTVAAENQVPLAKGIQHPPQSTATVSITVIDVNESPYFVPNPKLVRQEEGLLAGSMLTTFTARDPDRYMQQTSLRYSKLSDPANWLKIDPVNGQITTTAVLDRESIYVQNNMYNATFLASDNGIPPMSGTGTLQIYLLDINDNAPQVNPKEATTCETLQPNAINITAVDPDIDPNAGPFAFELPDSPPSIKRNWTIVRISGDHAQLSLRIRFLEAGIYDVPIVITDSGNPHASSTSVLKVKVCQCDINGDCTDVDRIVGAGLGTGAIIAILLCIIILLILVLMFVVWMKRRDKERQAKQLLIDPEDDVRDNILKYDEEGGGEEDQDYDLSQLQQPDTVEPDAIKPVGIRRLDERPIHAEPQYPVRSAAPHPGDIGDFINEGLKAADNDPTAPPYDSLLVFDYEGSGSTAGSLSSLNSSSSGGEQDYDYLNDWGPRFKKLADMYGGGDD
The assay is described as above. How it is done: as §1

Assay [4] addresses T3, full length chicken N-cadherin with the mutation D27C expressed on K562 cells (chicken, UniProt P10288 165-912, D27C).
T3 construct: whole, on cells; also called K562 D27C
T3 sequence (looked up): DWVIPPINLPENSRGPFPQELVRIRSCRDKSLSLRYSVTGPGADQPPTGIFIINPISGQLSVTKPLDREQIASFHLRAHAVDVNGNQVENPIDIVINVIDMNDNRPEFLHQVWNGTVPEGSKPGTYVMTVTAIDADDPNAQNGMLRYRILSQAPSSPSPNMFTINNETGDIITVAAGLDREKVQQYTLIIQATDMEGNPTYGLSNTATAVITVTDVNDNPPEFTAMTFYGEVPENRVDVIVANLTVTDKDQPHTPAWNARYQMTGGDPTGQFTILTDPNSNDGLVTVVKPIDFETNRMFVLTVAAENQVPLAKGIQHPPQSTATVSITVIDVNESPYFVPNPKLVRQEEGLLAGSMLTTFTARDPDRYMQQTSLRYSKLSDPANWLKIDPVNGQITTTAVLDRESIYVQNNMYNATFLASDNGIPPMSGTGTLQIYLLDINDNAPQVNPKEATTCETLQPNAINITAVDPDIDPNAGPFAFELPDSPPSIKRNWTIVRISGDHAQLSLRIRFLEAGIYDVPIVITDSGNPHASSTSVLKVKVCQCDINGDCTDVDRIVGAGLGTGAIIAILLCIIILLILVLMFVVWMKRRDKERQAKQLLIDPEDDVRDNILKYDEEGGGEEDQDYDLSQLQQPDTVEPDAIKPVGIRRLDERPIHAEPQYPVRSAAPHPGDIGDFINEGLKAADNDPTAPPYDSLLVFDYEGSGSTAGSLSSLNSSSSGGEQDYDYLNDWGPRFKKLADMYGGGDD
The assay is described as above. On the procedure:
as §1

Assay [5] concerns the target T4, human N-cadherin naturally expressed on DX3 melanoma cells (human, UniProt P19022 160-906).
T4 construct: also called DX3 Cells; N-cadherin+ve DX3 melanoma cells
T4 sequence: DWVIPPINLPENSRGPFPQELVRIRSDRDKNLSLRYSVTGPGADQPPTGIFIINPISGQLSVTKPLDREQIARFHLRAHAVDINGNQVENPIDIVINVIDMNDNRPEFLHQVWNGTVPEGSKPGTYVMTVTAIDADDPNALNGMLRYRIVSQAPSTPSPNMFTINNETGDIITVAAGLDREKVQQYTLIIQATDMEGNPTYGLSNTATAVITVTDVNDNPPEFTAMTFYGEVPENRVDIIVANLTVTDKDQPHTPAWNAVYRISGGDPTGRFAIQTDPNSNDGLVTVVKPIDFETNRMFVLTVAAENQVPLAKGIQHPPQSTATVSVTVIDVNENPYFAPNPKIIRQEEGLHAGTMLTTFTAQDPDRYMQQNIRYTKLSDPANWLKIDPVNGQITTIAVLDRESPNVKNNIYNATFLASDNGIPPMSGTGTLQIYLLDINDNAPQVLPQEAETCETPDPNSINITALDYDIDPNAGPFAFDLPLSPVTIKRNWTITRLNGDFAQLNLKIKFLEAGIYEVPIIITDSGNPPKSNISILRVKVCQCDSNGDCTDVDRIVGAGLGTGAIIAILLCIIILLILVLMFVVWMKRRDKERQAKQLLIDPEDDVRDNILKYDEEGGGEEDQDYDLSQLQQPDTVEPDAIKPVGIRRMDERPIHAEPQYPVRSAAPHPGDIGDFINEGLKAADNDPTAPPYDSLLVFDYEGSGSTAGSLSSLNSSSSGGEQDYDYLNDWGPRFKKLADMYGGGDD
Nature of the assay: adhesion of DX3 cells to coated monomeric N-cadherin-Fc, oxidising buffer. On the procedure:
Monomeric or dimeric N-cadherin-Fc fusion protein in Cos cell supernatants was added as described for the ELISA assay. DX3 Cells, a human melanoma cell line which expresses N-cadherin, were dissociated with Cell Dissociation Solution (Sigma, code C5789), resuspended in HBSS with 2% FCS and assessed for adhesion to wild type or mutant N-cadherin-Fc as previously described (Corps et al., 2001). Microscopic examination established that the cells were present as a single cell suspension as they settled onto the plate. For assays conducted in reducing conditions, 10 mM DTT was present during the adhesion and washing steps. Determinations were conducted in triplicate and results are presented as mean +/−sem.

Assay [6] has as its target T1, full length chicken N-cadherin with the …. Put plainly: cell adhesion to coated monomeric N-cadherin-Fc, then non-reducing SDS-PAGE and immunoblot. On the procedure:
Monomeric N-cadherin-Fc (1 μg/ml) bearing the three alternative cysteine point mutations, D1C, R25C or D27C, was immobilised on 96-well plates with goat antihuman IgG Fe as previously described for E-cadherin-Fc (Corps et al., 2001). Unbound cadherin was removed by washing with HBSS, 0.1% BSA, followed by HBSS alone. The plates were not blocked with additional protein. K562 transfectants expressing N-cadherin bearing complementary or non-complementary point mutations (6×10^4 Cells in 100 μl HBSS containing 10 mM DTT), in single cell suspension, were added to the coated wells which contained 100 μl HBSS. The final concentration of DTT was therefore 5 mM DTT during the adhesion stage. The cells were allowed to settle for 10 min at room temperature before incubation at 37° C. for 30 minutes to complete adhesion. […] Adherent cells from a pool of 4 wells for each experimental condition were then solubilised in sample buffer for SDS-PAGE and analysed on NuPAGE Novex gradient gels, 3-8% or 4-12%, (Invitrogen), under nonreducing or reducing conditions. Cellular cadherin was detected by immunoblotting using rabbit pan anti-cadherin antiserum specific for the cytoplasmic domain. Alternatively, N-cadherin-Fc fusion protein was detected with rabbit anti-human IgG, Fc-specific (Pierce, code 31142). […]

Regarding “wild type monomeric chicken N-cadherin-Fc (mutations F405A and Y407A in the CH3 domain of Fc) (from UniProt P10288 165-729) (Fc fusion)”, the % cells adhering in assay [1] came out at 65%.

B1: chicken N-cadherin-Fc fusion protein with the mutation D27C, dimeric (conventional fusion protein dimerised via Fc), coated to Protein A magnetic beads (Fc fusion, UniProt P10288 165-728, looked up)
chain: DWVIPPINLPENSRGPFPQELVRIRSCRDKSLSLRYSVTGPGADQPPTGIFIINPISGQLSVTKPLDREQIASFHLRAHAVDVNGNQVENPIDIVINVIDMNDNRPEFLHQVWNGTVPEGSKPGTYVMTVTAIDADDPNAQNGMLRYRILSQAPSSPSPNMFTINNETGDIITVAAGLDREKVQQYTLIIQATDMEGNPTYGLSNTATAVITVTDVNDNPPEFTAMTFYGEVPENRVDVIVANLTVTDKDQPHTPAWNARYQMTGGDPTGQFTILTDPNSNDGLVTVVKPIDFETNRMFVLTVAAENQVPLAKGIQHPPQSTATVSITVIDVNESPYFVPNPKLVRQEEGLLAGSMLTTFTARDPDRYMQQTSLRYSKLSDPANWLKIDPVNGQITTTAVLDRESIYVQNNMYNATFLASDNGIPPMSGTGTLQIYLLDINDNAPQVNPKEATTCETLQPNAINITAVDPDIDPNAGPFAFELPDSPPSIKRNWTIVRISGDHAQLSLRIRFLEAGIYDVPIVITDSGNPHASSTSVLKVKVCQCDINGDCTDVDRIVGAGLGT
notes: extracellular domain; also called dimeric N-cadherin-Fc D27C; D27C beads; not shown: hinge region, CH2 and CH3 domains of human IgG1 heavy chain (vector pIgSig)
With B1, the “beads attached to each cell” value in assay [2], in assay [3] and in assay [4] was around 5 beads per cell in each case.

B2: monomeric chicken N-cadherin-Fc with the mutation R25C (Fc fusion, UniProt P10288 165-728, looked up)
chain: DWVIPPINLPENSRGPFPQELVRICSDRDKSLSLRYSVTGPGADQPPTGIFIINPISGQLSVTKPLDREQIASFHLRAHAVDVNGNQVENPIDIVINVIDMNDNRPEFLHQVWNGTVPEGSKPGTYVMTVTAIDADDPNAQNGMLRYRILSQAPSSPSPNMFTINNETGDIITVAAGLDREKVQQYTLIIQATDMEGNPTYGLSNTATAVITVTDVNDNPPEFTAMTFYGEVPENRVDVIVANLTVTDKDQPHTPAWNARYQMTGGDPTGQFTILTDPNSNDGLVTVVKPIDFETNRMFVLTVAAENQVPLAKGIQHPPQSTATVSITVIDVNESPYFVPNPKLVRQEEGLLAGSMLTTFTARDPDRYMQQTSLRYSKLSDPANWLKIDPVNGQITTTAVLDRESIYVQNNMYNATFLASDNGIPPMSGTGTLQIYLLDINDNAPQVNPKEATTCETLQPNAINITAVDPDIDPNAGPFAFELPDSPPSIKRNWTIVRISGDHAQLSLRIRFLEAGIYDVPIVITDSGNPHASSTSVLKVKVCQCDINGDCTDVDRIVGAGLGT
notes: extracellular domain; not shown: hinge region, CH2 and CH3 domains of human IgG1 heavy chain (vector pIgSig)
For the molecule B2, the binding result in assay [5] and in assay [6] was “binds” in each case.
